{"source": "patent US7214663B2", "about": "“Tripeptide prodrug compounds” (Medarex, Inc., priority 2001, dated 2007)", "key": {"in vivo": {"test": "in vivo", "conditions": "female, ICR, mouse, iv, 100 umol/kg", "experimental": "Plasma was obtained from three individual animals in each group at 5 minutes, 1, 2, 4, or 6 hr."}, "Ramos cells (CD10pos)": {"tested_on": "Ramos cells (CD10pos)", "format": "cell-based, human", "conditions": "24 hours, 3H-thymidine", "protocol": "(§1) In addition to LNCaP, a number of B-cell lines, such as Ramos and Namalwa cells express CD10 (CD10^pos cells).\n(§2) Suspension cells, BALL-1, Ramos and Namalwa cells were cultured in RPMI media containing 10% heat inactivated fetal calf serum (FCS). On the day of the study, the cells were collected, washed and resuspended at a concentration of 0.5×10^6 cells/ml in RPMI containing 10% FCS. 100 μl of cell suspension was added to 96 well plates. […] Finally 10 μl of a 100 μCi/ml ^3H-thymidine was added per well and the plates were incubated for 24 hours. The plates were harvested using a 96 well Harvester (Packard Instruments) and counted on a Packard Top Count counter. Four parameter logistic curves were fitted to the ^3H-thymidine incorporation as a function of drug molarity using Prism software to determine IC50 values."}, "BALL-1 cells (CD10neg)": {"tested_on": "BALL-1 cells (CD10neg)", "format": "cell-based, human", "protocol": "as §1, §2"}, "Namalwa cells (CD10pos)": {"tested_on": "Namalwa cells (CD10pos)", "test": "cells", "format": "cell-based, human", "conditions": "24 hours, 3H-thymidine", "protocol": "as §1, §2"}, "[1]": {"conditions": "mouse, in vivo, intravenous"}, "[2]": {"test": "Repeat-dose tolerability / repeat dose MTD in tumor bearing mice", "format": "in vivo, mouse", "conditions": "mouse, in vivo, intravenous, five doses, based on efficacy study in Example 12", "excerpt": "(§3) In one study, one animal in each dose group (n=8) was terminated as a possible drug-related toxicity death late in the study, at Days 58 and 57 in the low and high dose-groups respectively. The safety of the compound was evidenced by little body weight loss in either the high or low dose groups (less than 5% of the initial weight) during the 60-day observation period, in surviving animals (FIG. 14). In the other study, both the high and low dose were well tolerated. Only one animal in the high dose group (n=10) had over 15% of body weight loss at the end of the study (Day 61).\n(§4) In repeat-dose studies in tumor bearing mice, groups of ten mice were dosed with various amounts of prodrug for a total of five doses at either five day or 1 week intervals. […] Thus, the prodrugs permit a much greater amount of therapeutic agent to be delivered to the body as a whole and thus to the vicinity of the target cell."}, "tumor-bearing nude mice": {"tested_on": "tumor-bearing nude mice", "test": "Repeat-dose tolerability / repeat dose MTD in tumor bearing mice", "format": "in vivo, mouse", "excerpt": "as §3, §4"}, "[3]": {"tested_on": "purified Porcine Kidney CD10", "test": "Hydrolysis by purified CD10", "format": "biochemical", "protocol": "Reaction products were analyzed by HPLC with fluorescence detection. Rates were essentially linear over the incubation period. The observed product was Leu-doxorubicin."}, "[4]": {"tested_on": "HeLa cell anion exchange fraction (F1), trouase", "test": "Relative cleavage by HeLa cell anion exchange fraction (F1) versus Suc-βAla-Leu-Ala-Leu standard", "format": "biochemical, human", "protocol": "Thirty billion commercially produced HeLa Cells (human cervical carcinoma, Computer Cell Culture Ceizter, Seneffe, Belgium) were homogenized with a sonicator and with a Dounce homogenizer in 108 mL of aqueous lysis solution. The lysis solution contained 0.02% w/v Triton X-100, 0.04% w/v sodium azide, and a cocktail of protease inhibitors (2 tablets/50 mL Complete™, EDTA-free tablets, Roche Molecular Biochemicals). The cell homogenate was centrifuged 30 minutes at 4° C. at 5000×g and the pellet was homogenized in a second 108 mL of lysis solution using a Dounce homogenizer and centrifuged as before. The supernatants were combined and centrifuged for 90 min at 145,000×g at 4° C.\nA portion of the ultracentrifugation supernatant was diluted 2-fold with a 20 mM triethanolamine-HCl pH 7.2 buffer containing 0.01% (w/v) Triton X-100 and 0.02% (w/v) sodium azide (equilibration buffer). Thirty mL of the resulting solution, corresponding to approximately 180 mg of protein, was loaded at 4° C. on a 2.6×9.4 cm Source™ 15Q (Amersham Pharmacia Biotech) low pressure anion exchange chromatography column (1 ml/minute). The column was then washed with 250 ml of the equilibration buffer at a flow rate of 1 mL/minute. Proteins were eluted in a NaCl linear concentration gradient (0–0.5 M in the equilibration buffer, total volume of the gradient was 1000 ml) at a flow rate of 3 ml/minute. Two-minute fractions were collected and used for enzyme activity determination using βAla-Leu-Ala-Leu-Dox as the substrate. Its transformation into Ala-Leu-Dox was quantified by reverse phase high performance liquid chromatography utilizing fluorescence detection of the anthracycline moiety. The fractions containing the highest activity levels were pooled (fractions #43–46; ˜0.13 M NaCl), supplemented with protease inhibitors (Complete™, EDTA-free tablets, Roche Molecular Biochemicals), and stored as aliquots at −80° C.\nTest compounds were incubated for 2 hr at 37° C. at a concentration of 12.5 μg/mL with HeLa cell anion exchange fraction (F1), as prepared in Example 1(c). Following incubation, three volumes of acetonitrile were added to stop the reaction and remove protein from the mixture. The sample was centrifuged at 18,000 g for 5 minutes and 100 μL of supernatant was mixed with 300 μL of water prior to analysis by HPLC. For HPLC analysis 50 μL of sample was injected on a 4.6×50 mm 2μ TSK Super-ODS chromatography column at 40° C. and eluted with a 3 minute linear gradient from 26% to 68% acetonitrile in aqueous 20 mM ammonium acetate pH 4.5 buffer at 2 mL/min. Detection was by fluorescence using an excitation wavelength of 235 nm and an emission wavelength of 560 nm.\nthe amount of cleavage of each test compound was compared to the amount of a standard Suc-βAla-Leu-Ala-Leu-therapeutic agent conjugate cleaved by F1 under the same conditions. The therapeutic agent in the standard (Dox or Dnr) was the same as in the test compound. Table 3 provides the relative cleavage rates of several tripeptide prodrugs."}, "[5]": {"tested_on": "healthy young female normal mice"}, "[6]": {"conditions": "first experiment, as first stated"}, "[7]": {"conditions": "recalculation (about 47% active compound)"}}, "note": "Where two headings read alike, the source gives them in different places.", "data": [{"smiles": "COc1cccc2c1C(=O)c1c(O)c3c(c(O)c1C2=O)C[C@@](O)(C(=O)CO)C[C@@H]3O[C@H]1C[C@H](NC(=O)[C@H](CC(C)C)NC(=O)[C@H](C)NC(=O)[C@H](CC(C)C)NC(=O)CCC(=O)O)[C@H](O)[C@H](C)O1", "note": "[Suc-Leu-Ala-Leu-Dox]", "values": [{"measurement": "AUC", "setting": "in vivo", "value": 634, "unit": "µM·h"}, {"measurement": "IC50", "setting": "Ramos cells (CD10pos)", "value": 2630, "unit": "nM"}, {"measurement": "fold difference between CD10pos and CD10neg cells", "setting": "BALL-1 cells (CD10neg)", "value": "30-35 fold"}, {"measurement": "IC50", "setting": "BALL-1 cells (CD10neg); Ball-1 (CD10neg), 24 hours, 3H-thymidine", "value": 78.7, "unit": "µM"}, {"measurement": "Ratio Ball-1:Namalwa", "setting": "BALL-1 cells (CD10neg); ratio of IC50", "value": 35}, {"measurement": "Ratio Ball-1:Ramos", "setting": "BALL-1 cells (CD10neg); ratio of IC50", "value": 30}, {"measurement": "IC50", "setting": "Namalwa cells (CD10pos)", "value": 2270, "unit": "nM"}, {"measurement": "MTD at 28 day", "setting": "[1]", "value": "~59", "unit": "mg/kg"}, {"measurement": "MTD at 60 day", "setting": "[2]", "value": "~52", "unit": "mg/kg"}, {"measurement": "acute signs of toxicity following repeat administration", "setting": "tumor-bearing nude mice; 52 or 63 mg/kg every 5 days for five doses", "value": "no acute signs of toxicity"}, {"measurement": "body weight loss, % of the initial weight", "setting": "tumor-bearing nude mice; 52 or 63 mg/kg intravenously every 5 days for five doses, 60-day observation", "value": "less than 5%"}, {"measurement": "Optimal Efficacy Repeat Dose (mg/kg), value in parentheses (doxorubicin equivalent dose)", "setting": "tumor-bearing nude mice; Table 11, five doses at five day or 1 week intervals", "value": 38, "unit": "mg/kg"}, {"measurement": "Optimal Efficacy Repeat Dose", "setting": "tumor-bearing nude mice; Table 11, five doses at five day or 1 week intervals, tumor bearing mice, 60 days", "value": 63, "unit": "mg/kg"}, {"measurement": "% hydrolysis/10 hr", "setting": "[3]; 12.5 μg/mL, 37° C., pH 7.4, up to 10 hr", "value": 8.3, "unit": "%"}, {"measurement": "Fraction hydrolyzed relative to standard", "setting": "[3]; standard Suc-βAla-Leu-Ala-Leu-Dox", "value": 0.75}, {"measurement": "Relative Cleavage %", "setting": "[4]; 2 hr at 37° C., 12.5 μg/mL, HeLa F1, relative to Suc-βAla-Leu-Ala-Leu-(Dox or Dnr) standard", "value": 62, "unit": "%"}, {"measurement": "Relative Rate of Cleavage", "setting": "[4]; relative to Suc-βAla-Leu-Ala-Leu-Dox = 100 (Tables 11 and 12)", "value": 62}, {"measurement": "equivalent dose of doxorubicin safely administered", "setting": "[5]; [6]", "value": 66, "unit": "mg/kg"}, {"measurement": "fold higher than possible with doxorubicin alone", "setting": "[5]; [6]", "value": "approximately 8 fold"}, {"measurement": "mortalities over the 28-day study", "setting": "[5]; intravenous 23-117 mg/kg", "value": "no mortalities"}, {"measurement": "single-dose MTD", "setting": "[5]; intravenous, mice, 28-day study, first experiment, doses as first stated", "value": "greater than 117 mg/kg"}, {"measurement": "equivalent dose of doxorubicin safely administered", "setting": "[5]; [7]", "value": 70, "unit": "mg/kg"}, {"measurement": "fold higher than possible with doxorubicin alone", "setting": "[5]; [7]", "value": "approximately 3.3 fold"}, {"measurement": "single dose MTD, fold higher than doxorubicin alone", "setting": "[5]; repeated experiment", "value": "at least 1.2 fold"}]}]}
